The results in this text go back to patent US20170096486A1, “AGENTS INHIBITING GRANULIN FOR TREATMENT OF CANCER” (priority 2014, published 2017).

This experiment has as its system MCF7 cells. Description: Proliferation of MCF7 cells after peptide treatment. It is filed as cell-based. Particulars: MCF7 cells (FIG. 5).

B1: HB-EGF: peptide mimetic HB-EGF (R&D Systems 259-HE-050) (protein, UniProt Q99075 63-148, looked up)
Heparin-binding EGF-like …: DLQEADLDLLRVTLSSKPQALATPNKEEHGKRKKKGKGLGKKRDPCLRKYKDFCIHGECKYVKELRAPSCICHPGYHGERCHGLSL
As for B1, the “proliferation after peptide treatment” value is given as “does not affect proliferation”.
